In the nanobody polyreactivity screen of Harvey et al. (2022):

Experiment: yeast display, Sf9 membrane polyspecificity reagent, FACS + sequencing; frameworks hold sequencing errors
Outline: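 Galactose-induced (36–48 hours) yeast carrying a synthetic nanobody display library were exposed to 10% biotinylated, detergent-solubilized Sf9 membrane reagent at 4 °C for 1 hour. FACS followed streptavidin microbead enrichment, using low and high (top ~1%) gates for expression (anti-HA) and reagent binding (streptavidin). Colony PCR, MiSeq 2 × 250 sequencing and CDR-length filtering followed. Labels for polyreactivity reflect the gate of origin.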

Sequence: QVQLVESGGGLVQAGGSLRLSCAASGIIFYIYTMGWYRQAPGKERELVAAINRSGSRTYYADSVKGRFTISRDYAKNNVYLQMNSLKPEDTAVYYCAAGTGSRDDYWGQGTQVTVST
- polyreactivity (PSR sort gate): high polyreactivity

Sequence: QVQLVESGGGLVQAGGSLRLSCAASGLTFYYNAMGWYRPAPGKERELVAAITWSTDSTYYADSVKGRFTISRDNAKNTVYLQMNSLKPEDTAVYYCAAAVDAFTNKQYYYWGQGTQVTVSS
- polyreactivity (PSR sort gate): low polyreactivity

Sequence: QVQLVESGGGLVQAGGSLRLSCAASGRIFYEYAMGWYRQAPGKEREVVAAISNSGGSTSYADSVKGRFSISRDNATNTDYLQMNSLQPEDTAVSYCAAGSHSGRAYYYWGEGTQVTVSS
- polyreactivity (PSR sort gate): high polyreactivity

Sequence: QVQLVESGGGLVQAGGSLRLSSAASGRTFFRSGMGWYRQAPGKEREFVAAITRSGTTTYYADSVKGRFTISRDNAKQTVYLPMNSLQPEDTAVYYCAAQRAAPVDGKSDYWGHGTQVTVSS
- polyreactivity (PSR sort gate): low polyreactivity

Sequence: QVQLVESGGGLVQAGGSLRLSCSASGIIFIYYGMGWYRKAPGKERELVAAISRSGGRTYYADSVKGRFTISRDNANNTVYFHMNSLKPEDTAVYYCANTYTQTGFDYWGQGTQVTVSS
- polyreactivity (PSR sort gate): high polyreactivity

Sequence: QVQLEESGGGLVQAGGSLRISCAASGFIYRDYDMGWYRQAPGKERELVAAISLSGGSTYYADSVKGRFTISRDNAKNTVYLQMNSLKPEDTAVYYCAAVSAYEGNYWGQGTQVTVSS
- polyreactivity (PSR sort gate): high polyreactivity

Sequence: QVQLVESGGGLVQAGGSLRLSCAASGRIFRINGMGWYRQAPGKEREFVAAITSGGGTYYADTVKGRFTISRDNAKNTVYLQMNSLKPEDTAVYYCAAPSYRTRYYYWGQGTQVTVSS
- polyreactivity (PSR sort gate): high polyreactivity

Sequence: QVQLVESGGGLVQAGGSLRLSCAASGYTVLYAIGWYRQAPRKDRELVAAISSRTGTTYYADSVKGRFTISRDNAKNSVYLQMNSLKREDTAVYYCNVEYFYYFRENGDYWGQGTQVTVSS
- polyreactivity (PSR sort gate): low polyreactivity

Sequence: QVQLVESGGGLVQAGGSLRLSCAASGRIIYKNAMGWYRQAPGKERELVAAITSSGGSTYYADSVKGRFTISRDNAKNTVYLQMNSLKPEDTAVYYCAAYAYGRFGKLNYWGQGTQVTVSS
- polyreactivity (PSR sort gate): low polyreactivity

Sequence: QVQLVESGGGLVQAGGSLRLSCAASGFTYKYYAMGWYRQAPGKERELVAAISGSGGRTYYADSVKGRFTISRDNAKNTVYLQMNSLKPEDTAVYYCAAVYLVTRGARYDYWGQGTQVTVSS
- polyreactivity (PSR sort gate): high polyreactivity

Sequence: QGQLQESGGGLVQAAGSLRMSCAASGTIFSEANMGWYRQAPGQVRELVATIGQGSTTNYADSVKGRFTISRDNAKNTVYLQMISLKPEETGVYYCAVVTVDPVGFVYWGQGTQVTVSS
- polyreactivity (PSR sort gate): low polyreactivity

Sequence: QVQLVESGGGLVQAGGSLRLSCAASGFTFRRYAMGWYRQAPGKERELVAAITWSGGSTYYADSVKGRFTISRDNAKNTVYLQMNSLKPEDTAVYYCNKAYSPLYFSYNYWGQGTQVTVSS
- polyreactivity (PSR sort gate): high polyreactivity

Sequence: QVQLVESGGGLVQAGGSLRLSCAASGIIFDVYAMGWYIQAPGKERELVAAISSGGSTYYADSVKGRFTISRDNAKNTVYLQMNSLKPEDTAVYYCATAQSVIYRYEYWGQGTQVTVSS
- polyreactivity (PSR sort gate): low polyreactivity

Sequence: QVQLVESGGGLVQAGGSLRLSCAASGNIFRINAMGWYRQAPGKERELVAAISRSVGSTYADSVKGRFTISRDNAKNTVYLQMNSLKPEDTAVYYCNARGRTQQRWVDYWGQGTQVTVSS
- polyreactivity (PSR sort gate): high polyreactivity

Sequence: QVQLVESGGGLVQAGGSLRLSCAASGIIFGRNAMGWYRQAPGKERELVAAIRWSGGSTYYADSVKGRFTISRDNAKNTVYLQMNSLKPEDTAVYYCAKRYSYWSGVKYGYWGQGTQVTVSS
- polyreactivity (PSR sort gate): high polyreactivity

Sequence: QVQLEESGAGLVQAGCSLRLSCAASGSTLFNNAMGWYRQAPGKERELVAAITFSGASTYYADSVKGRFTISRDNAKNTVYLQMNSLKPEDTAVYYCGADPSFNYIPVYYFDYDYWGQATQVTVSS
- polyreactivity (PSR sort gate): low polyreactivity

Sequence: QVQLEESGGGLVQAGGSLRLSCAASGSIFQQYAMGWYRQAPGKERELVAAISYSGGTTYYADSVKGRFTISRDNAKNTVYLQMNSLKPEDTAVDYCAAYYPSGSYDYYWGQGTQVTVSS
- polyreactivity (PSR sort gate): low polyreactivity

Sequence: QVQLVESGGGLVQAGGSLSLICAASGFTFLIYAMGWYRQAPGKERELVAAITWRGSGTYYADSVKGRFTISRDNAKNTVYLQMNSLKPEDTAVYYCAARTARRTYDYWGQGTQVTLSS
- polyreactivity (PSR sort gate): low polyreactivity

Sequence: QVQLVESGGGLVQAGGSLRLSCAASGFTFGVNAMGWYRQAPGKERELVAAISSSGGRTYYADSVKGRFTISRDNAKNTVYLQMNSLKQEDTAVYYCAARYVYTRGGPLKRDYWGQGTQVTVSS
- polyreactivity (PSR sort gate): high polyreactivity

Sequence: QVQLVESGGGLVQAGGSLRLSCAASGRTFRFNAMGWYRQAPGKESELVAAISSSGRTYYADSVKGRFTISRDNAKNTVYLQMNSLKPEDTAVYYCNKDPYLKLKMDYWGQGTQVTGSS
- polyreactivity (PSR sort gate): high polyreactivity

Sequence: QVQLVESGGGLVQAGGSLRLSCAASGRIFGVYGMGWYRQAPGKERELVAAISWSGATTYYADSVKGRFTISRDNAKNTVYLQMNSLKPEDTEVYYCAADFGWFYDGLAVWFIRILGVYWGQGTQVTVSS
- polyreactivity (PSR sort gate): low polyreactivity

Sequence: QVQLVESGGGLVQAGGSLRVSCAASGSIFYGNAMGWYRQAPGKARELVAAISNVGRTDYADSVKGRFTISRDNAKPTVYLQMNSLKPEDTADYSCAAGVYSGSNRYYAPRSWFGYYYWGQGTQVTVSS
- polyreactivity (PSR sort gate): low polyreactivity

Sequence: QVQLVESGGGLVQAGGSLRLSCAASGRTFRYNGMGWYRQAPGKERELVAAITLRDGRTYYADSVKGRITISRDNPKNTVNIQMNSLIPEHTAVYYCALEYWVVNAQGNDYWGQGTQVSVSS
- polyreactivity (PSR sort gate): high polyreactivity

Sequence: QVQLVESGGGLVQAGGSLRLRCAASGTTFSDNAMGWYRQAAGKERELVAAITSGGSTYYADSVKGRFTISRDNAKNTVYLQMNSLKPEDTAVYYCAADYWGQGTQVTVSS
- polyreactivity (PSR sort gate): low polyreactivity

Sequence: QVQLVESGGGLVQAGGSLRLSCAASGSTFVIYALGWYRQAPGKERELVAALSWSGGRTNYADSVKGRFTISRDNAKNTVYLQLNSLKPEDTAVYYCAAVTGVPYPHGRYKYGYWGQGTQVTVSS
- polyreactivity (PSR sort gate): high polyreactivity

Sequence: QVQLVESGGGLVQAGGSLRLICAASGSIFSGYAMGWYRQAPGKERELVAAITTSGGSTYYADSVKGRFTISRENAKNTVYLPMNSLNPEDTSVYYCAAGWLYSRYARVYYWGQGTQVTLSS
- polyreactivity (PSR sort gate): high polyreactivity

Sequence: QVHLVESGAGLDQAGGSLSLSCAASGRNFSFNAMGSYRQAPGKVRELVASIRSGGSTNYADSVKGRFTISSDNAKNTVYLQMNSLKPEDTAVYYCAKRSTYWGWSSYGMDHWGQGTQVTVSS
- polyreactivity (PSR sort gate): high polyreactivity

Sequence: QVQLVESGGGLVQAGGSLRLSCAASGRIFRSYAMGWYRQAPGKERELVAAISSGGSTNYADSVKGRFTISRDNAKNTVYLQMNSLKPEDTAVYYCAASYLYEWSRFVYDGLYYWGQGTQVTVSS
- polyreactivity (PSR sort gate): low polyreactivity

Sequence: QVQLVESGGALVQAGGSLRLSCAASGSIIVYNDMRSSRQAPGKQRELVAAITSSGGSTYYADSVKGRFTISRDNAKNTVYLQMNSLKPEDTAVYYCNVWDRPLTGYDYRGQGTQVTVSS
- polyreactivity (PSR sort gate): low polyreactivity

Sequence: QVQLVESGGGLVQAGGSLRLSCAASGFIFPGYAMGWYRQAPGKERELVAAISVSGGSTFYADSVKGRFTISRDNAKYTVYLQMNSLKPEDTAVYYCNARGYTWSYPLGIRVRYDYWGQGTQVTVSS
- polyreactivity (PSR sort gate): high polyreactivity

Sequence: QVQLVESGGGLVQAGGSLRLSCAASGFIFAWNAMGWYRQAPGKERELVASISSGGGSTYYADSVKGRFTISRDNAKNTVYLQMNSLKPEDTAVYYCAASYAYLRGLHYYKYDSWGQGTQVTVSS
- polyreactivity (PSR sort gate): low polyreactivity

Sequence: QVQLVESGGGLVQAGGSLRLSCAASGFTLSAYAMGLYRQAPGKERELVAGNSYTGGRTYYADSVKGRFTISRDNAKNTFYLQLISLKPEDTAVDYCAAALYSDVDAVATYGYYWGEGTQVTVSS
- polyreactivity (PSR sort gate): low polyreactivity
